Test results: patent US20250296971A1, “GASTRIC INHIBITORY PEPTIDE RECEPTOR LIGANDS” (priority 2021, published 2025)
*1 amine or outer side, *2 acyl side, *3 side chain or, on linkers, in order; H or OH if unused. Bridges are numbered along the chain shown (N, C = ends). Primed or numbered codes have the meaning given here. [ ]: non-standard residue; d: D form. The star is where a group is joined. Ttds″ = 1,13-diamino-4,7,10-trioxatridecan-succinamic acid (linker), O=C(CCC(=O)[*:2])NCCCOCCOCCOCCCN[*:1]; Ttds = 1,13-diamino-4,7,10-trioxatridecan-succinamic acid, NCCCOCCOCCOCCCNC(=O)CCC(=O)*; DOTA(In) = O=C1CN2CCN3CCN(CC(=O)*)CCN(CC2)CC(=O)[O][In]([O]1)[O]C(=O)C3; Ttds(3) = 1,13-diamino-4,7,10-trioxatridecan-succinamic acid linker; APAc″ = 4-amino-1-carboxymethylpiperidine, NC1CCN(CC(=O)*)CC1; dE(AGLU) = D-glutamic acid bearing 1-amino-1-deoxy-D-glucitol; Ttds(4) = 1,13-diamino-4,7,10-trioxatridecan-succinamic acid; Pro(trans-4-NH2) = O=C([C@@H]1C[C@@H](N[*:3])CN1[*:1])[*:2]; DOTA = O=C(O)CN1CCN(CC(=O)O)CCN(CC(=O)*)CCN(CC(=O)O)CC1; 3MeBn = 3-methyl-benzylidene (derived from 1,3-xylene); 2Lut = 2,6-lutidylidene bridge between two thiols; Trp(5-Cl) = N[C@@H](Cc1c[nH]c2ccc(Cl)cc12)C(=O)O; Pyridine(2,6-diCH2) = c1cc(C[*:1])nc(C[*:2])c1; Trp(5-F) = N[C@@H](Cc1c[nH]c2ccc(F)cc12)C(=O)O; 2Lut″ = 2,6-lutidylidene linking two thiols; APAc = 4-amino-1-carboxymethylpiperidine; 1Nal = N[C@@H](Cc1cccc2ccccc12)C(=O)O; mXylylene = c1cc(C[*:1])cc(C[*:2])c1; LuDOTA = DOTA Lutetium(III) complex; Glutaryl = O=C(CCCC(=O)[*:2])[*:1]; AGLU = 1-amino-1-deoxy-D-glucitol; Hyp = O=C(O)[C@@H]1C[C@@H](O)CN1; Cha = N[C@@H](CC1CCCCC1)C(=O)O; Cysteamide = C(CS[*:3])N[*:1]; Suc = O=C(CCC(=O)[*:2])[*:1]; αMeK = C[C@](N)(CCCCN)C(=O)O; N(CH2CH2)2NH = C1CN(*)CCN1; Api = NC1(C(=O)O)CCNCC1; Thp = NC1(C(=O)O)CCOCC1; Dap = NC[C@H](N)C(=O)O; NH(CH2)5NH2 = NCCCCCN*; DOTA′ = DOTA chelator; Aib = CC(C)(N)C(=O)O

B1: AGLU-Glutar-Asp-Trp-5Clw-Hyp-Glu-leu-[Cys(2Lut)-Apc(InDOTA)-Leu-Ile-AET] (peptide)
peptide: {AGLU-Glutaryl}-DW[Trp(5-Cl)][Hyp]E[dL]C[Api](DOTA(In))LI[Cysteamide]
modifications: thioether (positions not given here) via Pyridine(2,6-diCH2); not fully specified (bridges); printed as AGLU-Glutar-Asp-Trp-5Clw-Hyp-Glu-leu-[Cys(2Lut)-Apc(InDOTA)-Leu-Ile-AET]; also: In complex of DOTA
B2: DOTA-APAc-Asp-Trp-5Clw-Hyp-Glu-leu-[Dap(3MeBn)-Thp-Leu-Ile-AET] (peptide)
peptide: {DOTA-APAc″}-DW[Trp(5-Cl)][Hyp]E[dL][Dap][Thp]LI[Cysteamide]
modifications: linker (positions not given here) via mXylylene; not fully specified (bridges); printed as DOTA-APAc-Asp-Trp-5Clw-Hyp-Glu-leu-[Dap(3MeBn)-Thp-Leu-Ile-AET]
B3: Ac-Asp-1Ni-5Clw-Hyp-Glu-leu-[Cys(2Lut)-Thp-Leu-Ile-Cys]-NH2 (peptide)
peptide: Ac-D[1Nal][Trp(5-Cl)][Hyp]E[dL]C[Thp]LIC-NH2
modifications: linker 7-11 via Pyridine(2,6-diCH2)
SMILES: CC[C@H](C)[C@@H]1NC(=O)[C@H](CC(C)C)NC(=O)C2(CCOCC2)NC(=O)[C@@H](NC(=O)[C@@H](CC(C)C)NC(=O)[C@H](CCC(=O)O)NC(=O)[C@@H]2C[C@@H](O)CN2C(=O)[C@H](Cc2c[nH]c3ccc(Cl)cc23)NC(=O)[C@H](Cc2cccc3ccccc23)NC(=O)[C@H](CC(=O)O)NC(C)=O)CSCc2cccc(n2)CSC[C@@H](C(N)=O)NC1=O
B4: DOTA-Ttds-Asp-Trp-5Clw-Pro-Glu-leu-[Cys(2Lut)-Apc-Leu-Ile-AET] (peptide)
peptide: {DOTA-Ttds″}-DW[Trp(5-Cl)]PE[dL]C[Api]LI-Cysteamide
modifications: not fully specified (bridges); printed as DOTA-Ttds-Asp-Trp-5Clw-Pro-Glu-leu-[Cys(2Lut)-Apc-Leu-Ile-AET]
B5: DOTA-APAc-Asp-Trp-5Clw-Hyp-Glu-leu-[Cys(2Lut)-Thp-Leu-Ile-AET] (peptide)
peptide: {DOTA-APAc″}-DW[Trp(5-Cl)][Hyp]E[dL]C[Thp]LI[Cysteamide]
modifications: linker (positions not given here) via Pyridine(2,6-diCH2); not fully specified (bridges); printed as DOTA-APAc-Asp-Trp-5Clw-Hyp-Glu-leu-[Cys(2Lut)-Thp-Leu-Ile-AET]
B6: AGLU-Glutar-Asp-Trp-5Clw-Hyp-Glu-leu-[Cys(2Lut)-Apc(AGLU-Glutar)-Leu-Ile-Cys]-APAc-Lys(DOTA)-NH2 (peptide)
peptide: DWXXEXCXLIC
modifications: N-term AGLU-Glutar; 5Clw; Hyp; leu (D-Leu); thioether cycle [Cys(2Lut)..Cys]; Apc(AGLU-Glutar); C-term APAc-Lys(DOTA)-NH2

Assays:
[1] = molecular target: human Gastric Inhibitory Peptide Receptor (human) (UniProt P48546); assay: FACS competition with GIP-057 on CHO-K1-hGIPR cells; pIC50 category A: >8.0
[2] = molecular target: biotinylated extracellular domain of the human GIP receptor (bioGIPR) (human) (UniProt P48546); assay: SPR single cycle kinetics, bioGIPR captured on chip; category A: pKD >9.0
[3] = molecular target: biotinylated extracellular domain of the human GIP receptor (bioGIPR) (human) (UniProt P48546); assay: SPR single cycle kinetics, bioGIPR captured on chip; category A: t1/2 >15 min
[4] = molecular target: human Gastric Inhibitory Peptide Receptor (GIPR) (human) (UniProt P48546); assay: FACS competition vs biotinylated GIP-057 on CHO-K1-hGIPR cells; category A: pIC50 >8.0
human Gastric Inhibitory Peptide Receptor (GIPR) (human), sequence (P48546 22-466 limits assumed): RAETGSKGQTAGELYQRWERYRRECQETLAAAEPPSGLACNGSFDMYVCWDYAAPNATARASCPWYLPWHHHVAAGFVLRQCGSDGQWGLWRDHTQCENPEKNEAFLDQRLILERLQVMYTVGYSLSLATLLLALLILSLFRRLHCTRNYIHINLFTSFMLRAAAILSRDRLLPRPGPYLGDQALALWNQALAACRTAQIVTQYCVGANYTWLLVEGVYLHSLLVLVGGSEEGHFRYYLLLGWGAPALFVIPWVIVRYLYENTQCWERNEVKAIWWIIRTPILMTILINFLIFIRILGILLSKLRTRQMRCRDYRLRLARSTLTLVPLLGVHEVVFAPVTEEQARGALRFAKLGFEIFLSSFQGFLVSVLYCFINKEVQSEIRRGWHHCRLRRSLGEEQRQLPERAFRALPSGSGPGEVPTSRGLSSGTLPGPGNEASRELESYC

biotinylated extracellular domain of the human GIP receptor (bioGIPR) (human), sequence (P48546 24-138 limits assumed): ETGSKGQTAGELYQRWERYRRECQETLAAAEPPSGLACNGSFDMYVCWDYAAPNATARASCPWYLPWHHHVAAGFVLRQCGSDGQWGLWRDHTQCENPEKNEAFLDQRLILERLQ
human Gastric Inhibitory Peptide Receptor (human), sequence (P48546 22-466 limits assumed): as the sequence (P48546 22-466 limits assumed) above

Binder	pIC50 [1]	pKD [2]	t1/2 [3]	pIC50 [4]
{DOTA-Ttds}-DW[Trp(5-Cl)][Pro(trans-4-NH2)]E[dL][Dap][Api]LI[Cysteamide] (linker 7-11 via Pyridine(2,6-diCH2)) [DOTA-Ttds-Asp-Trp-5Clw-Tap-Glu-leu-[Dap(2Lut)-Apc-Leu-Ile-AET]]	> 8 pic50	> 9 pkd	> 15 min	
{DOTA(In)-APAc″}-DW[Trp(5-Cl)][Hyp]E[dL]C[Thp]LI[Cysteamide] (linker 7-11 via 2Lut; also: DOTA as indium complex (InDOTA)) [InDOTA-APAc-Asp-Trp-5Clw-Hyp-Glu-leu-[Cys(2Lut)-Thp-Leu-Ile-AET]]	> 8 pic50	> 9 pkd	> 15 min	
Ac-DW[Trp(5-Cl)][Hyp]V[dL]C[Thp]LIC-NH2 (linker 7-11 via Pyridine(2,6-diCH2)) [Ac-Asp-Trp-5Clw-Hyp-Val-leu-[Cys(2Lut)-Thp-Leu-Ile-Cys]-NH2]				> 8 pic50
B1	> 8 pic50	> 9 pkd	> 15 min	
Ac-[dD]W[Trp(5-Cl)][Hyp]E[dL]C[Thp]LIC-NH2 (linker 7-11 via Pyridine(2,6-diCH2)) [Ac-asp-Trp-5Clw-Hyp-Glu-leu-[Cys(2Lut)-Thp-Leu-Ile-Cys]-NH2]				> 8 pic50
Suc-W[Trp(5-Cl)][Hyp]E[dL]C[Thp]LIC-{N(CH2CH2)2NH-DOTA′} (linker 6-10 via 2Lut) [HO-Succinyl-Trp-5Clw-Hyp-Glu-leu-[Cys(2Lut)-Thp-Leu-Ile-Cys]-PP-DOTA]	> 8 pic50	> 9 pkd	> 15 min	
{LuDOTA-Ttds}-DW[Trp(5-Cl)]PE[dL]C[Aib]LI[Cysteamide] (linker 7-11 via mXylylene) [LuDOTA-Ttds-Asp-Trp-5Clw-Pro-Glu-leu-[Cys(3MeBn)-Aib-Leu-Ile-AET]]	> 8 pic50	> 9 pkd	> 15 min	
{DOTA(In)-Ttds}-DW[Trp(5-Cl)][Hyp]E[dL]C[Aib]LI[Cysteamide] (linker 7-11 via 3MeBn; also: DOTA as indium complex (InDOTA)) [InDOTA-Ttds-Asp-Trp-5Clw-Hyp-Glu-leu-[Cys(3MeBn)-Aib-Leu-Ile-AET]]	> 8 pic50	> 9 pkd	> 15 min	
Suc-W[Trp(5-Cl)][Hyp]E[dL]C[Api](DOTA)LI[Cysteamide] (linker 6-10 via 2Lut) [HO-Succinyl-Trp-5Clw-Hyp-Glu-leu-[Cys(2Lut)-Apc(DOTA)-Leu-Ile-AET]]	> 8 pic50	> 9 pkd	> 15 min	
Suc-W[Trp(5-Cl)][Hyp]E[dL]C[Thp]LIC-{APAc-Lys(DOTA)-NH2} (linker 6-10 via 2Lut) [HO-Succinyl-Trp-5Clw-Hyp-Glu-leu-[Cys(2Lut)-Thp-Leu-Ile-Cys]-APAc-Lys(DOTA)-NH2]	> 8 pic50	> 9 pkd	> 15 min	
{AGLU-Glutaryl-APAc}-DW[Trp(5-Cl)][Pro(trans-4-NH2)]E[dL]C[Api]LIC-{APAc-dE(AGLU)-NH2} (linker 7-11 via Pyridine(2,6-diCH2); not fully specified (residue 8))	> 8 pic50	> 9 pkd	> 15 min	
Ac-D[Trp(5-F)][Trp(5-Cl)][Hyp]E[dL]C[Thp]LIC-NH2 (linker 7-11 via Pyridine(2,6-diCH2)) [Ac-Asp-5Fw-5Clw-Hyp-Glu-leu-[Cys(2Lut)-Thp-Leu-Ile-Cys]-NH2]				> 8 pic50
Ac-DW[Trp(5-Cl)][Hyp]E[dL]C[Thp][Cha]IC-NH2 (linker 7-11 via Pyridine(2,6-diCH2)) [Ac-Asp-Trp-5Clw-Hyp-Glu-leu-[Cys(2Lut)-Thp-Cha-Ile-Cys]-NH2]				> 8 pic50
Ac-DW[Trp(5-Cl)][Hyp]S[dL]C[Thp]LIC-NH2 (linker 7-11 via Pyridine(2,6-diCH2)) [Ac-Asp-Trp-5Clw-Hyp-Ser-leu-[Cys(2Lut)-Thp-Leu-Ile-Cys]-NH2]				> 8 pic50
Suc-W[Trp(5-Cl)][Hyp]E[dL]C[Thp]LIC-{NH(CH2)5NH2-DOTA′} (linker 6-10 via 2Lut) [HO-Succinyl-Trp-5Clw-Hyp-Glu-leu-[Cys(2Lut)-Thp-Leu-Ile-Cys]-Ape-DOTA]	> 8 pic50	> 9 pkd	> 15 min	
Suc-W[Trp(5-Cl)][Hyp]E[dL]C[Api](DOTA(In))LI[Cysteamide] (linker 6-10 via 2Lut; also: In complex of DOTA) [HO-Succinyl-Trp-5Clw-Hyp-Glu-leu-[Cys(2Lut)-Apc(InDOTA)-Leu-Ile-AET]]	> 8 pic50	> 9 pkd	> 15 min	
B2	> 8 pic50	> 9 pkd	> 15 min	
Ac-DW[Trp(5-Cl)][Pro(trans-4-NH2)](DOTA)E[dL]C[Thp]LIC-NH2 (linker 7-11 via 2Lut″) [Ac-Asp-Trp-5Clw-Tap(DOTA)-Glu-leu-[Cys(2Lut)-Thp-Leu-Ile-Cys]-NH2]	> 8 pic50	> 9 pkd	> 15 min	
{DOTA(In)-APAc″}-DW[Trp(5-Cl)]PE[dL]C[Aib]LI[Cysteamide] (linker 7-11 via 3MeBn; also: DOTA as indium complex (InDOTA)) [InDOTA-APAc-Asp-Trp-5Clw-Pro-Glu-leu-[Cys(3MeBn)-Aib-Leu-Ile-AET]]	> 8 pic50	> 9 pkd	> 15 min	
{AGLU-Glutaryl-APAc}-DW[Trp(5-Cl)][Hyp]E[dL]C[Api](DOTA)LIC-{APAc-dE(AGLU)-NH2} (linker 7-11 via Pyridine(2,6-diCH2)) [AGLU-Glutar-APAc-Asp-Trp-5Clw-Hyp-Glu-leu-[Cys(2Lut)-Apc(DOTA)-Leu-Ile-Cys]-APAc-glu(AGLU)-NH2]	> 8 pic50	> 9 pkd	> 15 min	
B3				> 8 pic50
Suc-W[Trp(5-Cl)][Hyp]E[dL]C[Api]LIC-{APAc-Lys(DOTA)-NH2} (linker 6-10 via 2Lut) [HO-Succinyl-Trp-5Clw-Hyp-Glu-leu-[Cys(2Lut)-Apc-Leu-Ile-Cys]-APAc-Lys(DOTA)-NH2]	> 8 pic50	> 9 pkd	> 15 min	
Suc-W[Trp(5-Cl)][Hyp]E[dL]C[Thp]LIC-{Ttds(3)-Lys(DOTA)-NH2} (linker 6-10 via Pyridine(2,6-diCH2)) [HO-Succinyl-Trp-5Clw-Hyp-Glu-leu-[Cys(2Lut)-Thp-Leu-Ile-Cys]-Ttds-Lys(DOTA)-NH2]	> 8 pic50	> 9 pkd	> 15 min	
B4	> 8 pic50	> 9 pkd	> 15 min	
B5	> 8 pic50	> 9 pkd	> 15 min	
B6	> 8 pic50	> 9 pkd	> 15 min	
{DOTA-Ttds}-DW[Trp(5-Cl)][Pro(trans-4-NH2)]E[dL]C[Api]LI[Cysteamide] (linker 7-11 via Pyridine(2,6-diCH2)) [DOTA-Ttds-Asp-Trp-5Clw-Tap-Glu-leu-[Cys(2Lut)-Apc-Leu-Ile-AET]]	> 8 pic50	> 9 pkd	> 15 min	
Ac-DW[Trp(5-Cl)][Hyp]A[dL]C[Thp]LIC-NH2 (linker 7-11 via Pyridine(2,6-diCH2)) [Ac-Asp-Trp-5Clw-Hyp-Ala-leu-[Cys(2Lut)-Thp-Leu-Ile-Cys]-NH2]				> 8 pic50
{AGLU-Glutaryl}-DW[Trp(5-Cl)][Pro(trans-4-NH2)]E[dL]C[αMeK](DOTA)LIC-{APAc-dE(AGLU)-NH2} (linker 7-11 via Pyridine(2,6-diCH2)) [AGLU-Glutar-Asp-Trp-5Clw-Tap-Glu-leu-[Cys(2Lut)-Amk(DOTA)-Leu-Ile-Cys]-APAc-glu(AGLU)-NH2]				> 8 pic50
Ac-D[Trp(5-Cl)][Trp(5-Cl)][Hyp]E[dL]C[Thp]LIC-NH2 (linker 7-11 via Pyridine(2,6-diCH2)) [Ac-Asp-5Clw-5Clw-Hyp-Glu-leu-[Cys(2Lut)-Thp-Leu-Ile-Cys]-NH2]				> 8 pic50
